The target of this assay is A/New Caledonia/20/1999 (H1N1) hemagglutinin, truncated recombinant HA (Influenza A virus A/New …, UniProt Q6WG00, strain). The assay can be described thus: ELISA. A general note: An ELISA detects its analyte on a solid surface through an enzyme-linked reagent.

B1: mAb BE1 (whole mouse antibody) (antibody, V domains shown)
VH: EVQLVESGGGLVQPKGSLKLSCATSGFTFNTFDMHWVRQAPGKDLEWVARIRTKGNSYATYYAASVKDRITISRDDSQSMLYLEMNSLRSEDTAMYYCVREGGHYYGYYFDFWGQGTTLTVSS
VL: EIQMTQTTSSLSASLGDRVTISCRASQDIYNYLNWYQQQPDGAVKLLIYYTSKLHSGVPSRFSGSGSGTDYSLTITNLEQEDIATYFCQQGYTLPYTFGGGTKLEIK
Turning to B1, the binding result is recorded as “binds”.

For the origin of these results see publication PMC11316637 (Structure (London, England : 1993), 2024).
